Values of other authors in paper PMC2786309 (Bioconjugate chemistry, 2009).

Experiments:
[1] = test system: B16/F1 melanoma-bearing C57 mice; conditions: mouse, in vivo
[2] = test system: MC1 receptor present on melanoma cells; conditions: statement in method text, no reference given

Which Tumor uptake ([1]; 4 h) does the source give for “^111In-DOTA-[β-Ala^3, Nle^4, Asp^5, D-Phe^7, Lys^10]-α-MSH3-10 [^111In-DOTA-MSHoct]” here?
The Tumor uptake was 4.31 ± 0.30 % ID/g.

What does the source list for “^111In-DOTA-Gly-Glu-c[Lys-Nle-Glu-His-DPhe-Arg-Trp-Gly-Arg-Pro-Val-Asp] (FRWGRPVD; not fully specified; 111In-DOTA, Gly-Glu-Lys-Nle-Glu-His N-term, cyclic; printed: Phe-Arg-Trp-Gly-Arg-Pro-Val-Asp) [^111In-DOTA-GlyGlu-CycMSH]”?
Renal uptake reduction compared to 111In-DOTA-CycMSH [1]: 44%; Melanoma uptake ([1]; 2 h): 10.40 ± 1.40 % ID/g

For NDP-MSH, which “Affinity for the MC1 receptor” value [2] is on record?
The value was “picomolar affinity”.
